Test results published in patent US20240026407A1, “MODIFICATION OF SAPONINS” (GLAXOSMITHKLINE BIOLOGICALS SA, priority 2020, published 2024).
Where a chain is given by its changes, count along the chain named. Names and notes keep the numbering of the source.

Tests used:
[1] = Example 9: screening of rhamnosidase variants for derhamnosylation of saponins in crude bark extract; assay type: biochemical, Quillaja saponaria; settings: for Cumulative FIOP from WT: estimate
Experimental: Libraries of genetic variants encoding mutations in the wild type Kribbella flavida rhamnosidase (SEQ ID No. 1017) were prepared using molecular biology techniques, enzymes were prepared linked to a C-terminally located His-tag. Single monoclonal colonies were grown in 400 ul of expression medium and protein expressed. Cell pellets were lysed in 200 ul of the relevant buffer (Table 17).
Lysate was diluted appropriately in the relevant buffer to allow a lysate loading of the indicated % loading (1% loading corresponds to use of 2 ul original lysate in a 200 ul reaction).
Crude bark extract (CBE) obtained by aqueous extraction of Quillaja saponaria and containing at least 2.80 mg/ml QS-21 (by HPLC-UV) was adjusted to pH 6 by dropwise addition of 2M NaOH with stirring. The relevant concentration of the relevant glucosidase was added. The appropriate relative volume of pH 6 CBE (160 ul (for 80%) or 150 ul (for 75%)) was added to each well of the reaction plate. The reaction plate was sealed and incubated at the relevant temperature and time.
The reaction plate was quenched by adding 200 uL of MeCN (2% AcOH, 1 mg/mL hexanophenone) to each well of the plates. The quenched reaction plate was re-sealed and incubated at 20 deg C. with shaking for 10 min. The reaction plate was then centrifuged (10 min, 4 degC).
200 uL was transferred from each well of the quenched plate to the corresponding wells of a fresh 96 well plate and sealed. The plate was analysed by UV HPLC with the method described in Example 4.
Three key peaks of interest are apparent using this chromatography: Left Peak (retention time approximately 2.30-2.35 min) comprising mainly QS-17 family components; Middle Peak (retention time approximately 2.37-2.42 min) comprising mainly QS-18 family components and desglucosyl-QS-17 family components; and Right Peak (retention time approximately 2.44-2.50 min) comprising mainly QS-21 family components. Peak identity was supported by MS/MS.
Enzyme activity is calculated as the % conversion of the Left Peak present in the crude bark extract: […]

[2] = Example 10: derhamnosylation of saponins in crude bark extract (50%) using WT and engineered rhamnosidases R1 to R5; assay type: biochemical, Quillaja saponaria; settings: 50% CBE, 35 degC; for % Right Peak: starting CBE 26; for % Left Peak: starting CBE 30; for % Middle Peak: starting CBE 44
Experimental: Lyophilised powders from clarified cell lysate expressing glucosidases (from Example 8 WT glucosidase and engineered glucosidase polypeptides G1 to G5) and rhamnosidases (from Example 9 WT rhamnosidase and engineered rhamnosidase polypeptides R1 to R5) were dissolved in 200 mM sodium acetate aqueous solution at pH 5.8 to prepare the enzyme solutions at 4 fold the final reaction concentration as shown in Tables 19 and 20.
Each rhamnosidase solution was combined with an equal volume of 200 mM sodium acetate aqueous solution at pH 5.8 and separately with an equal volume of 200 mM sodium acetate aqueous solution at pH 5.8 containing 2 mg/ml glucosidase G5. This is a sufficient loading of glucosidase to effect complete hydrolysis of the relevant glucose moiety within 4 hours.
CBE was adjusted to pH of 6.0 to 6.2 with 2M sodium hydroxide and an equal volume added to the enzyme solution to prepare the reaction mix (i.e. 50% CBE concentration in reaction mix) and the concentration of glucosidase and/or rhamnosidase is shown in Tables 19 and 20. The reaction mix was heated to 35 degC for the time indicated in Tables 19 and 20, after which the reaction was quenched by addition of an equal volume of MeCN containing 2% acetic acid and shaken at room temperature for 10 mins prior to centrifugation (10 min, 4 degC) to remove particulates. Samples were analysed by UV HPLC using method of Experiment 4-4.
The change in composition of the Left, Middle and Right peaks is shown in Tables 19 and 20. The composition changes by the action of the enzymes depending on the presence or absence of the partner enzyme. The extent of reaction is proportional to the enzyme concentration and the reaction time under these conditions. The tables show data for enzyme concentrations and the reaction times providing for equivalent extents of reaction. The improvement resulting from the mutations introduced for each variant is equal to the fold change in enzyme concentration×time (i.e. fold improvement=(enzyme concentration×time) for preceding variant÷(enzyme concentration×time) for later variant). A cumulative fold improvement over the original enzyme variant is calculated by the product of the individual fold improvements.

[3] = R5 round: 35 deg C, 18 h, lysate 0.0625% v/v, CBE 75% v/v, 100 mM Sodium acetate pH 5.8
[4] = rhamnosidase 0.16 mg/ml, no glucosidase, 7 h
[5] = rhamnosidase 0.31 mg/ml + glucosidase G5 0.5 mg/ml, 4 h
[6] = R2 round: 20 deg C, 20 h, lysate 1.25% v/v, CBE 80% v/v, 100 mM Potassium phosphate pH 6
[7] = rhamnosidase 1.25 mg/ml + glucosidase G5 0.5 mg/ml, 7 h
[8] = rhamnosidase 1.25 mg/ml, no glucosidase, 7 h

B1: Variant R5: engineered rhamnosidase polypeptide, variant of Kribbella flavida rhamnosidase SEQ ID No. 1017 (protein)
chain: MSFPAAPARLRFEHRTDPGPVLGIGTATPRLSWQVPTAPDDYRQAGYEVEIARGDAAPEQYTVDSADQVLVPWPGTPLAARESATVRVRVRGDGDWSQWSDPATVEAGLLSADDWTARFVSPRENAGHEAPAPLIGGVIDLPPDIAQARLYATAHGIYEPTLNGTRVGDEQLAPGWTAYEQRLRYQTYDVTDLVAPGENRLELLVGNGWYRGRMSFHDGHSLYGDRLAVLAQLEVTTATGEVKVLASDGTWTTRETNVLADDLYDGQHVDLRRTLGEPGPVDVLDADLSLLVAPDGPPVRVTDVLPAKAVTTSPAGKTLVDFGQNVVGRLRLRVRGGAAGDEIVLRHAEVLEDGELCVRPLRTAKATDSFVLAGPDEVTLEPTLTFHGFRYAEITGVPDLRAEDVEAVVVGSDLRRTGWFESSHPLLDRFHENVVWGMRGNFLDVPTDCPQRDERLGWTGDIQVFSPTASFLFDTAGFLTNWLADLIAEQHKDGSVPFVVPDVLRQPSPATAAWGDAATIVPWVLYERTGDAGLLARQLPSMRAWVDRMAGLAGDDLLWVGGFQFGDWLDPTAPPDDPFRAKADPDVLATAHLARSAEVVALAAEVVGAGELAREYAELAARVRQAFAAEYTTASGRVLSDAATNYALALQWALLPTEAQRKRAGERLADLVRTAGFRISTGFVGTPLMCDALADSGHPDLAYRLLLETGCPSWLYAVTMDATTVWERWDSMLPDGSINPGQMTSFNHYALGAVADWMHRRVAGLAPGDPGYRRIVVDPLFTAHLTKASARHLTPYGEAAVAWSRSGGRVRLEVTVPVGARARVAVPGESAPVEVGHGTHEWTADDVYGETPPLPADATIRQLIDHEPSWTTLAAAATRTGIVADDAELAGRLERYLDHPATELVDAVSPRGFSPSAEALHAELDSVLGR
modifications: Seq ID No. 1017 with mutations A143P, L214M, G215S, G218D, K219G, G357C, G508S, G634A, A690C, Q921H
[1]; [3]
  % conversion (Right peak/Left Peak) (−neg control): 2.62%
  Cumulative FIOP from WT: 28.7
[1]; R5 round: 35 deg C, 18 h, lysate 0.0625% v/v, CBE 75% v/v, 100 mM Sodium acetate pH 5.8, negative control 26.23
  Right Peak %: 26.93%
[1]; R5 round: 35 deg C, 18 h, lysate 0.0625% v/v, CBE 75% v/v, 100 mM Sodium acetate pH 5.8, negative control 28.76
  Left Peak %: 26.59%
[1]; R5 round: 35 deg C, 18 h, lysate 0.0625% v/v, CBE 75% v/v, 100 mM Sodium acetate pH 5.8, negative control 45.00
  Middle Peak %: 46.48%
[1]; R5 round: 35 deg C, 18 h, lysate 0.0625% v/v, CBE 75% v/v, 100 mM Sodium acetate pH 5.8, negative control 47.70
  % conversion (Right peak/Left Peak): 50.32%
[1]; R5 round: 35 deg C, 18 h, lysate 0.0625% v/v, CBE 75% v/v, 100 mM Sodium acetate pH 5.8, positive control R4
  FIOP (% area increase variant/pos control): 1.3
[2]; 2 mg/ml rhamnosidase R5 solution (before mixing with glucosidase solution and CBE)
  time to complete hydrolysis of the relevant rhamnose moiety: ≤ 4 h
[2]; from enzyme concentration x time for equivalent extent of reaction
  cumulative fold improvement over WT rhamnosidase: approximately 30 fold
[2]; [4]
  % change in Left Peak: −45%
  % change in Middle Peak: 27%
  % change in Right Peak: 106%
  Cumulative Fold improvement in primary enzyme loading × time: 31
  Fold improvement in primary enzyme loading × time: 1.9
  % Right Peak: 28%
  % Left Peak: 17%
  % Middle Peak: 56%
[2]; [5]
  % change in Left Peak: −34%
  % change in Middle Peak: −93%
  % change in Right Peak: 296%
  Cumulative Fold improvement in primary enzyme loading × time: 27
  Fold improvement in primary enzyme loading × time: 1.7
  % Right Peak: 77%
  % Left Peak: 20%
  % Middle Peak: 3%

B2: Variant R2: engineered rhamnosidase polypeptide, variant of Kribbella flavida rhamnosidase SEQ ID No. 1017 (protein)
chain: B1 chain with S215G, D218G, C357G, S508G, A634G, C690A
modifications: Seq ID No. 1017 with mutations A143P, L214M, K219G, Q921H
[1]; [6]
  % conversion (Right peak/Left Peak) (−neg control): 1.09%
  Cumulative FIOP from WT: 2.9
[1]; R2 round: 20 deg C, 20 h, lysate 1.25% v/v, CBE 80% v/v, 100 mM Potassium phosphate pH 6, negative control 23.63
  Left Peak %: 22.76%
[1]; R2 round: 20 deg C, 20 h, lysate 1.25% v/v, CBE 80% v/v, 100 mM Potassium phosphate pH 6, negative control 26.10
  Right Peak %: 26.27%
[1]; R2 round: 20 deg C, 20 h, lysate 1.25% v/v, CBE 80% v/v, 100 mM Potassium phosphate pH 6, negative control 50.27
  Middle Peak %: 50.97%
[1]; R2 round: 20 deg C, 20 h, lysate 1.25% v/v, CBE 80% v/v, 100 mM Potassium phosphate pH 6, negative control 52.49
  % conversion (Right peak/Left Peak): 53.57%
[1]; R2 round: 20 deg C, 20 h, lysate 1.25% v/v, CBE 80% v/v, 100 mM Potassium phosphate pH 6, positive control WT
  FIOP (% area increase variant/pos control): 2.9
[1]; R3 round: 35 deg C, 18 h, lysate 0.4% v/v, CBE 75% v/v, 100 mM Sodium acetate pH 5.8
  % conversion (Right peak/Left Peak) (−neg control): 3.99%
[1]; R3 round: 35 deg C, 18 h, lysate 0.4% v/v, CBE 75% v/v, 100 mM Sodium acetate pH 5.8, negative control 26.60
  Right Peak %: 27.59%
[1]; R3 round: 35 deg C, 18 h, lysate 0.4% v/v, CBE 75% v/v, 100 mM Sodium acetate pH 5.8, negative control 28.91
  Left Peak %: 25.57%
[1]; R3 round: 35 deg C, 18 h, lysate 0.4% v/v, CBE 75% v/v, 100 mM Sodium acetate pH 5.8, negative control 44.49
  Middle Peak %: 46.84%
[1]; R3 round: 35 deg C, 18 h, lysate 0.4% v/v, CBE 75% v/v, 100 mM Sodium acetate pH 5.8, negative control 47.91
  % conversion (Right peak/Left Peak): 51.90%
[2]; [7]
  % change in Left Peak: −40%
  % change in Middle Peak: −96%
  % change in Right Peak: 309%
  Cumulative Fold improvement in primary enzyme loading × time: 4
  Fold improvement in primary enzyme loading × time: 2.0
  % Right Peak: 80%
  % Left Peak: 18%
  % Middle Peak: 2%
[2]; [8]
  % change in Left Peak: −39%
  % change in Middle Peak: 19%
  % change in Right Peak: 113%
  Cumulative Fold improvement in primary enzyme loading × time: 4
  Fold improvement in primary enzyme loading × time: 2.0
  % Right Peak: 29%
  % Left Peak: 18%
  % Middle Peak: 52%
